Results from article PMC10352329.

Legend:
Assay in all cases: ITC
[1] = biological target: H2B (1–27) unmodified peptide (Homo sapiens); conditions: domain or fragment; chains chain; fluorescently labeled with a His tag Labeling Kit (microscale thermophoresis only)
[2] = biological target: H4 (1–20) unmodified peptide (Homo sapiens); conditions: domain or fragment; chains chain; fluorescently labeled with a His tag Labeling Kit (microscale thermophoresis only)
[3] = biological target: H4 (1–20) K5ac/K8ac peptide (Homo sapiens); conditions: domain or fragment

Sequence of H2B (1–27) unmodified peptide (Homo sapiens) (main, as listed by the source): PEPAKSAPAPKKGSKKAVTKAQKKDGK

B1: human p300BRP (residues 1048–1282), wild type, Q09472 1048-1282 (protein)
chain: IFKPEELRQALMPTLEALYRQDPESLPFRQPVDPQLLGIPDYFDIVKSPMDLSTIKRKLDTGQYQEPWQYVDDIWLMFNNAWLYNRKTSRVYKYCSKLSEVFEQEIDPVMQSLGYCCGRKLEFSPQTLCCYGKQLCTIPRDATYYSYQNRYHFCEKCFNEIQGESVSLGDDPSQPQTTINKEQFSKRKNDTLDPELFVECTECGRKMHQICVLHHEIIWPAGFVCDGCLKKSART
B1 was tested, and the Kd [1] was over 500 µM, the Kd [2] was over 500 µM and the Kd [3] was 240 µM.
